B1: CagL^ΔRGDΔTASLI double motif deletion, recombinant (natural protein)
chain: EDITSGLKQLDSTYQETNQQVLKNLDEIFSTTSPSANNEMGEEDALNIKKAAIALLALLKANFEANELFFISEDVIFKTYMSSPELLLTYMKINPLDQNTAEQQCGISDKVLVLYCEGKLKIEQEKQNIRERLETSLKAYQSNIGGTASQTLVESLKNKNFIKGIRKLMLAHNKVFLNYLEELDALERSLEQSKRQYLQERQSSKIIVK
B2: CagL^ΔRGD motif variant, recombinant (natural protein)
chain: EDITSGLKQLDSTYQETNQQVLKNLDEIFSTTSPSANNEMGEEDALNIKKAAIALLALLKANFEANELFFISEDVIFKTYMSSPELLLTYMKINPLDQNTAEQQCGISDKVLVLYCEGKLKIEQEKQNIRERLETSLKAYQSNIGGTASLITASQTLVESLKNKNFIKGIRKLMLAHNKVFLNYLEELDALERSLEQSKRQYLQERQSSKIIVK

How the values were obtained:
Experiment in all cases: ELISA; ELISA-like multiwell assay: wells coated overnight with 100 ng/well recombinant human integrin heterodimer in 100 mM sodium carbonate pH 9.5; blocked with FCS-containing or FCS-free blocker; purified CagL (2.5, 5, 10, 20 ng/well; 10 ng for the comparison of mutants) incubated 3 h, washed; bound CagL detected with anti-CagL antiserum AK271; values relative to wild type CagL set to 100% after background subtraction
[1] = biological target: recombinant human integrin α5β1 (human) (UniProt P08648)
[2] = biological target: recombinant human integrin αvβ5 (human) (UniProt P06756)
[3] = biological target: recombinant human integrin αvβ6 (human) (UniProt P06756)
Chain of recombinant human integrin αvβ6 (human) (P06756 31-1048, chain 1 of 2): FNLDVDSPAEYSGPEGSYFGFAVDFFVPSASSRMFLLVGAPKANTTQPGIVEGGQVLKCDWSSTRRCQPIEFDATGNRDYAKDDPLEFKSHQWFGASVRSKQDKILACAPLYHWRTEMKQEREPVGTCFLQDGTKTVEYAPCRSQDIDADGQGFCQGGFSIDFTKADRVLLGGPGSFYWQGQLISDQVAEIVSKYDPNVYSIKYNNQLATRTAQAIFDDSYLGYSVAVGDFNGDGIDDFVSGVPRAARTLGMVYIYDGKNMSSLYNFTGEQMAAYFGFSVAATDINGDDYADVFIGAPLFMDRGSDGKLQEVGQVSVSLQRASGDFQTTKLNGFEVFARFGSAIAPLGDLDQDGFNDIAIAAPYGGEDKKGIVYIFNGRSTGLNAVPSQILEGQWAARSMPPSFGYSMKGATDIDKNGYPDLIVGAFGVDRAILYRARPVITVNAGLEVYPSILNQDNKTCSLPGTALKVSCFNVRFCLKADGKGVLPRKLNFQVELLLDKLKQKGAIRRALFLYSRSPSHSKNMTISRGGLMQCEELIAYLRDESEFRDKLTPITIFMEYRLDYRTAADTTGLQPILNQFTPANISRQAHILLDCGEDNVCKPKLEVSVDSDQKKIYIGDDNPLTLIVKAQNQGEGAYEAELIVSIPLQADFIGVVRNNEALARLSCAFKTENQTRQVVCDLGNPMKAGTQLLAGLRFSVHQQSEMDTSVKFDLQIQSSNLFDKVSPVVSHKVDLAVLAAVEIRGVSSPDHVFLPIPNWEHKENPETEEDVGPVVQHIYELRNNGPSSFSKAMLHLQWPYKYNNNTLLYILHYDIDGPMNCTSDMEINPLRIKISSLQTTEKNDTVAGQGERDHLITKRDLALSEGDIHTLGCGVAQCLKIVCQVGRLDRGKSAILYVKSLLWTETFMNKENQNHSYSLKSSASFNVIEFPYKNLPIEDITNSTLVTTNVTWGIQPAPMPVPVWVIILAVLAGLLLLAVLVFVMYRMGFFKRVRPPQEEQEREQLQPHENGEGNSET
Chain of recombinant human integrin αvβ6 (human) (P18564 22-709, chain 2 of 2, further chain): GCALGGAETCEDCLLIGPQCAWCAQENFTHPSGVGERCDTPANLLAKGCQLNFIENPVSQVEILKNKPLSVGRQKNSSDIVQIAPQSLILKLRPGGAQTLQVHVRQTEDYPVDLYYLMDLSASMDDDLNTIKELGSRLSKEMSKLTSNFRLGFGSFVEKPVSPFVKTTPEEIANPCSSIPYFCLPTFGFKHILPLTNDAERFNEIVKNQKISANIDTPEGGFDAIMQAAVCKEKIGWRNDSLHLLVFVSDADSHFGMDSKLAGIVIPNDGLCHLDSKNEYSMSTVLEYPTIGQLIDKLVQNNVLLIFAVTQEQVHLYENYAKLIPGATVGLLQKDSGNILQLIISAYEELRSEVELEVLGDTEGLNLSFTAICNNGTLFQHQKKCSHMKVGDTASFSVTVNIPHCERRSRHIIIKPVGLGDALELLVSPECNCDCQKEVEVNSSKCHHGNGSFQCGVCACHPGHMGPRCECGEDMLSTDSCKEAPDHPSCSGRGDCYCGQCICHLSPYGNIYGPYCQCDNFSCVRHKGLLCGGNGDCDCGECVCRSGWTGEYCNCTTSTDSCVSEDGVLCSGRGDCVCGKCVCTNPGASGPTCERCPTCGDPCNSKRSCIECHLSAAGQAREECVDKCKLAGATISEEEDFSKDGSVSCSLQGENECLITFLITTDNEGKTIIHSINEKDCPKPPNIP

Chain of recombinant human integrin αvβ5 (human) (P06756 31-1048, chain 1 of 2): as the sequence (P06756 31-1048, chain 1 of 2) above
Chain of recombinant human integrin αvβ5 (human) (P18084 24-719, chain 2 of 2, further chain): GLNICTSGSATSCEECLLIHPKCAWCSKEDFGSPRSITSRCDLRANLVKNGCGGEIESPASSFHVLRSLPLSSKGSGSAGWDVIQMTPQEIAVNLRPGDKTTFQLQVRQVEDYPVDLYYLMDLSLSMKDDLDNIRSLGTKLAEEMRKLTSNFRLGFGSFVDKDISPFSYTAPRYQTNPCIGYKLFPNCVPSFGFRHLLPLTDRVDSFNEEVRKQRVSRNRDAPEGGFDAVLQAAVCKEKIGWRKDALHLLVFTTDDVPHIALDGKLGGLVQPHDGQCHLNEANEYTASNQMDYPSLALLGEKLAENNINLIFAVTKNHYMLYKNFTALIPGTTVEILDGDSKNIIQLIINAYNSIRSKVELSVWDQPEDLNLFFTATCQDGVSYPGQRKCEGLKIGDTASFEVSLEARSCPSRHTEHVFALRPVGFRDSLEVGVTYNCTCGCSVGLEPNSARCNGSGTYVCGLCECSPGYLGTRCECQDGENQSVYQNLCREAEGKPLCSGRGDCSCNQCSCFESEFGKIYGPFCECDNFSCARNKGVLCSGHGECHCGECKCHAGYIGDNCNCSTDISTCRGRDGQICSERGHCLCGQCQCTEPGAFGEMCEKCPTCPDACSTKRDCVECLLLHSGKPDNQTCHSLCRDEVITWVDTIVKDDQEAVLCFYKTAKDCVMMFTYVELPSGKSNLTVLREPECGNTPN
Chain of recombinant human integrin α5β1 (human) (P08648 42-1049, chain 1 of 2): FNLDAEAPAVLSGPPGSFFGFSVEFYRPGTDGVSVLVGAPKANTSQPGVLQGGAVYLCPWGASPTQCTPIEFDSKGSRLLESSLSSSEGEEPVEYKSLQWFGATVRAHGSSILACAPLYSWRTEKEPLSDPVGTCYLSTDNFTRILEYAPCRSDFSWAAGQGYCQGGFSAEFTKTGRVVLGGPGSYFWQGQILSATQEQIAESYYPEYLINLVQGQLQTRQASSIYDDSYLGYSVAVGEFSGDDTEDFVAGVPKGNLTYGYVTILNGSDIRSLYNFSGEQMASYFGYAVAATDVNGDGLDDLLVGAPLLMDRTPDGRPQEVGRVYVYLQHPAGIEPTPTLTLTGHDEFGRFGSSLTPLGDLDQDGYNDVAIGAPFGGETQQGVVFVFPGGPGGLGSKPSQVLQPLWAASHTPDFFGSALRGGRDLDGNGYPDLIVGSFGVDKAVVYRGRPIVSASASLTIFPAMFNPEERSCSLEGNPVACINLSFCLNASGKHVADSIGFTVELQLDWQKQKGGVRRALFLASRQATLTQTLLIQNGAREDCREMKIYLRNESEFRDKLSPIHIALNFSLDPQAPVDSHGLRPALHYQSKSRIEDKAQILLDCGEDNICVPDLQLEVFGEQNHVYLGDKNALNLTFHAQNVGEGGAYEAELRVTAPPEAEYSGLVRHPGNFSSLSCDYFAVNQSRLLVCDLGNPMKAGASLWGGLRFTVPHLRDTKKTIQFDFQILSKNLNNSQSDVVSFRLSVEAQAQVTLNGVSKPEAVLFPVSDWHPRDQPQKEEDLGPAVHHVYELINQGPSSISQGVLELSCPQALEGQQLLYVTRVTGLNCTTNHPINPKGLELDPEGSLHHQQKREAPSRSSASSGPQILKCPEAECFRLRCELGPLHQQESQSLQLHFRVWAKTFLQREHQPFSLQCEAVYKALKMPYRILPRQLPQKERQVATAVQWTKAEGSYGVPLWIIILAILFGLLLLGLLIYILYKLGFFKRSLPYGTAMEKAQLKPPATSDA
Chain of recombinant human integrin α5β1 (human) (P05556 21-728, chain 2 of 2, further chain): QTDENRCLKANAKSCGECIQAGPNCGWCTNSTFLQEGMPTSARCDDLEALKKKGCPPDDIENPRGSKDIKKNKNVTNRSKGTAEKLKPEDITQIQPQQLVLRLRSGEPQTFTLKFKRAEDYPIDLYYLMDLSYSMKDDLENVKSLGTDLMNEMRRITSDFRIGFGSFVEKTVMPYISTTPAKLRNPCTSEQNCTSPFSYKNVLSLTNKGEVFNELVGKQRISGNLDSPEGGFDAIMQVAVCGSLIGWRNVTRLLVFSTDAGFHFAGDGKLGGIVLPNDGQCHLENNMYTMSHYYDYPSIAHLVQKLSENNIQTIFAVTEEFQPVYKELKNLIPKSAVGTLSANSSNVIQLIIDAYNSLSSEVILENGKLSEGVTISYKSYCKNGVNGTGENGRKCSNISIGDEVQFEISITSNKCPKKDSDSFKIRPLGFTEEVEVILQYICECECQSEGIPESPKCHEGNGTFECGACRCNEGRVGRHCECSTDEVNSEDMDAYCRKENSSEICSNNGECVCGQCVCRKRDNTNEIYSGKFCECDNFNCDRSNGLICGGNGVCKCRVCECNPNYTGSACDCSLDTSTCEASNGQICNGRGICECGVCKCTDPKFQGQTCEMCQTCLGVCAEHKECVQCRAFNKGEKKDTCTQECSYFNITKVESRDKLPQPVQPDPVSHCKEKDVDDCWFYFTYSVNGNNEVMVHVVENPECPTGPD

| Binder | binding in percent of wild type CagL [1] | binding in percent of wild type CagL [2] | binding in percent of wild type CagL [3] |
| --- | --- | --- | --- |
| B1 | < 36% | < 36% | < 36% |
| B2 | < 50% | < 50% | < 50% |
